For 1 substance, median donor fluorescence lifetime (FLIM) results are on record in paper PMC4592971.

This test has as its target full length RhoA (Q63L) as it stands in the constitutively GTP-loaded DORA-RhoA biosensor (UniProt P61586). The test can be described thus: FRET or BRET; FRET inside the single-chain DORA-RhoA biosensor (CFP on RhoA, YFP on the PKN1 domain) in living HeLa cells; single cell emission spectra and frequency domain FLIM of the donor (75.1 MHz). (Bioluminescence resonance energy transfer reports proximity on the nanometre scale.)
Chain of UniProt P61586 (P61586 whole entry Q63L, the tested form may be a part): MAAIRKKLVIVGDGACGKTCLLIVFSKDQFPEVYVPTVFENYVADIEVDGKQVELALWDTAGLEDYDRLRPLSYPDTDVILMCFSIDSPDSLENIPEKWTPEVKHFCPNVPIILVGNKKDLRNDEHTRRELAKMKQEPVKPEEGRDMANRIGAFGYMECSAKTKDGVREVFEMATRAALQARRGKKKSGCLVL

“Rho binding domain of PKN1 (cpPKN) as it stands in the DORA-RhoA biosensor (domain or fragment)” displayed a median donor fluorescence lifetime (FLIM) of 2.4 ns.
